In series [1] the test system is T1, Nc1nc2c(ncn2[C@@H]2O[C@H](COP(=O)(O)OP(=O)(O)OP(=O)(O)O)[C@@H](O)[C@H]2O)c(=O)[nH]1.
T1 construct: full length (706 residues) with N-terminal 6xHis tag from pET-28b(+), NheI/HindIII; expressed in E. coli Rosetta 2(DE3); about 77 kDa
The series is described as follows: ribosome-dependent GTPase, colorimetric Pi release, Lineweaver-Burk. Format: biochemical, Pseudomonas aeruginosa. The note with it: P. aeruginosa ribosomes 0.4 μM, EF-G1A 1.0 μM, 10 mM MgCl2, 70 mM NH4Cl, pH 7.5, kcat is kcat^obs. From the text:
ribosome-dependent GTPase, colorimetric Pi release, Lineweaver-Burk on EF-G1A

Series [2] concerns T2, Nc1nc2c(ncn2[C@@H]2O[C@H](COP(=O)(O)OP(=O)(O)OP(=O)(O)O)[C@@H](O)[C@H]2O)c(=O)[nH]1.
T2 construct: full length (702 residues) with N-terminal 6xHis tag from pET-28b(+), NheI/HindIII; expressed in E. coli Rosetta 2(DE3); about 77 kDa
Described as above. Type of series: biochemical, Pseudomonas aeruginosa. The note with it: P. aeruginosa ribosomes 0.4 μM, EF-G1B 0.3 μM, 10 mM MgCl2, 70 mM NH4Cl, pH 7.5, 37 °C, kcat is kcat^obs, text b30 prints 71 μM. From the text:
ribosome-dependent GTPase, colorimetric Pi release, Lineweaver-Burk on EF-G1B

For orientation: Km means the concentration of substrate that gives half-maximal velocity. One may read the kcat as the number of substrate molecules converted per active site and unit of time at saturation. Usually kcat/Km stands for the turnover number divided by the Michaelis constant. As to EF-G1A (Pseudomonas aeruginosa PAO1), in series [1], the Km came to 85 µM, the kcat stood at 0.04 s⁻¹ and the kcat/Km was determined as 500 M⁻¹ s⁻¹.
EF-G1B (Pseudomonas aeruginosa PAO1): in series [2], the Km came to 70 µM, the kcat was 0.2 s⁻¹ and the kcat/Km worked out at 3000 M⁻¹ s⁻¹.
